Measured values published in patent publication US20130123192A1 (RESEARCH FOUNDATION OF STATE UNIVERSITY OF NEW YORK, published 2013).
Where no end group is shown, it is not given here.

How the values were obtained:
[1] = target: T1, Membrane type 1 matrix metalloproteinase (MT1-MMP) (Homo sapiens, UniProt P50281 112-582); assay: flow cytometry on cells expressing MT1-MMP
[2] = target: T1, Membrane type 1 matrix …; assay: cell-based or functional assay

Binder	binding result [1]	IC50, 3D invasion assay (human MDA-MB-231 breast cancer cell invasion) [2]
GYPMP (also: biotinylated (site not given here), also called biotinylated IS4-5 peptides) [biotinylated IS4-5 peptide]	binds	
GYPMP [IS4-5 peptide (GYPMP)]		1500 nM
GYPKSALR [IVS4-8 peptide (GYPKSALR)]		10000 nM
VMDGYPMP [IS4-8 peptide (VMDGYPMP)]		1500 nM
